Results reported in patent publication US20190309059A1 (SHANGHAI PHARMAEXPLORER, published 2019).

How the values were obtained:
[1] = target: his-labeled human IL-13 (immunogen A) (human) (UniProt P35225); assay: FACS blocking assay: antibody titrated with biotin-labeled immunogen A (30 ng/mL); blocked partner IL-13Ra1/IL-4Ra on HEK293 clone 4C1; Alexa 488 streptavidin
[2] = target: his-labeled human IL-13 (immunogen A) (human) (UniProt P35225); assay: FACS blocking, biotin-IL-13 on IL-13Ra1/IL-4Ra HEK293 cells; antibody at 6.67 nM
[3] = target: his-labeled human IL-13 (immunogen A) (human) (UniProt P35225); assay: FACS blocking, biotin-IL-13 on IL-13Ra2 HEK293 cells; antibody at 166.67 nM
[4] = target: his-labeled human IL-13 (immunogen A) (human) (UniProt P35225); assay: FACS blocking, biotin-IL-13 on IL-13Ra1/IL-4Ra HEK293 cells; antibody at 33.33 nM
[5] = target: his-labeled human IL-13 (immunogen A) (human) (UniProt P35225); assay: FACS blocking, biotin-IL-13 on IL-13Ra2 HEK293 cells; antibody at 33.33 nM
[6] = target: his-labeled human IL-13 (immunogen A) (human) (UniProt P35225); assay: FACS blocking, biotin-IL-13 on IL-13Ra2 HEK293 cells; antibody at 0.002 nM
[7] = target: his-labeled human IL-13 (immunogen A) (human) (UniProt P35225); assay: FACS blocking, biotin-IL-13 on IL-13Ra1/IL-4Ra HEK293 cells; antibody at 0.05 nM
[8] = target: his-labeled human IL-13 (immunogen A) (human) (UniProt P35225); assay: FACS blocking, biotin-IL-13 on IL-13Ra2 HEK293 cells; antibody at 6.67 nM
[9] = target: his-labeled human IL-13 (immunogen A) (human) (UniProt P35225); assay: FACS blocking, biotin-IL-13 on IL-13Ra2 HEK293 cells; antibody at 0.01 nM
[10] = target: his-labeled human IL-13 (immunogen A) (human) (UniProt P35225); assay: FACS blocking, biotin-IL-13 on IL-13Ra1/IL-4Ra HEK293 cells; antibody at 0.01 nM
[11] = target: his-labeled human IL-13 (immunogen A) (human) (UniProt P35225); assay: FACS blocking, biotin-IL-13 on IL-13Ra1/IL-4Ra HEK293 cells; antibody at 0.002 nM
[12] = target: his-labeled human IL-13 (immunogen A) (human) (UniProt P35225); assay: FACS blocking, biotin-IL-13 on IL-13Ra2 HEK293 cells; antibody at 0.05 nM
[13] = target: his-labeled human IL-13 (immunogen A) (human) (UniProt P35225); assay: FACS blocking, biotin-IL-13 on IL-13Ra1/IL-4Ra HEK293 cells; antibody at 1.33 nM
[14] = target: his-labeled human IL-13 (immunogen A) (human) (UniProt P35225); assay: SPR (Biacore)
[15] = target: his-labeled human IL-13 (immunogen A) (human) (UniProt P35225); assay: SPR (Biacore), antibody captured by anti-human Fc, immunogen A as analyte
[16] = target: his-labeled human IL-13 (immunogen A) (human) (UniProt P35225); assay: cell-based or functional assay
[17] = target: his-labeled human IL-13 (immunogen A) (human) (UniProt P35225); assay: FACS blocking, biotin-IL-13 on IL-13Ra1/IL-4Ra HEK293 cells; antibody at 0.27 nM
[18] = target: his-labeled human IL-13 (immunogen A) (human) (UniProt P35225); assay: FACS blocking, biotin-IL-13 on IL-13Ra1/IL-4Ra HEK293 cells; antibody at 166.67 nM
[19] = target: his-labeled human IL-13 (immunogen A) (human) (UniProt P35225); assay: FACS blocking, biotin-IL-13 on IL-13Ra2 HEK293 cells; antibody at 0.27 nM
[20] = target: his-labeled human IL-13 (immunogen A) (human) (UniProt P35225); assay: FACS blocking assay: antibody titrated with biotin-labeled immunogen A (20 ng/mL); blocked partner IL-13Ra2 on HEK293 clone 1A1; Alexa 488 streptavidin
[21] = target: his-labeled human IL-13 (immunogen A) (human) (UniProt P35225); assay: FACS blocking, biotin-IL-13 on IL-13Ra2 HEK293 cells; antibody at 1.33 nM
[22] = target: his-labeled human IL-13R130Q variant (human) (UniProt P35225); assay: ELISA, IL-13R130Q variant; antibody at 0.53 nM
Sequence of his-labeled human IL-13R130Q variant (human) (P35225 other isoform, or with tags, fused parts or gaps mutant): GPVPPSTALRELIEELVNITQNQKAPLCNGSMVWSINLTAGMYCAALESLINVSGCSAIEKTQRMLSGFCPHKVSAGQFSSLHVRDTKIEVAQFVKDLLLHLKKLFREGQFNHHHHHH

[23] = target: his-labeled human IL-13R130Q variant (human) (UniProt P35225); assay: ELISA, IL-13R130Q variant; antibody at 13.33 nM
[24] = target: his-labeled human IL-13R130Q variant (human) (UniProt P35225); assay: ELISA, IL-13R130Q variant; antibody at 2.67 nM
[25] = target: his-labeled human IL-13R130Q variant (human) (UniProt P35225); assay: ELISA, IL-13R130Q variant; antibody at 0.021 nM
[26] = target: his-labeled human IL-13R130Q variant (human) (UniProt P35225); assay: ELISA, IL-13R130Q variant; antibody at 0.11 nM
[27] = target: his-labeled human IL-13R130Q variant (human) (UniProt P35225); assay: ELISA, IL-13R130Q variant; antibody at 0.004 nM
[28] = target: his-labeled human IL-13R130Q variant (human) (UniProt P35225); assay: ELISA, IL-13R130Q variant; antibody at 66.67 nM

B1: c70F10A10 (mouse-human chimeric IL-13 antibody) (antibody, V domains shown)
VH: QIQLQQSGAELARPGASVKLSCKASGYTFTSYGISWVKQRDGQGLEWIGEIYPRSGNTDYNEKFKGKATLTADKSSSTAYMELRSLTSEDSAVYFCSSFTTLVPTDYFDYWGQGTTLTVSS
VL: DIMMSQSPSSLAVSVGEKVSMTCKSSQSLLYSSNQKNYLAWYQQKPGQSPKMLIYWASTRETGVPDRFTGSGSGTDFTLTISSVMAEDLAVYYCHQYFTYPRTFGDGTKLEVK
[1]
  IC50 (read off the curve): 1 nM
[2]
  mean fluorescence intensity: 27.3
[3]
  mean fluorescence intensity: 24.6
[4]
  mean fluorescence intensity: 22.6
[5]
  mean fluorescence intensity: 27.8
[6]
  mean fluorescence intensity: 97.5
[7]
  mean fluorescence intensity: 96.9
[8]
  mean fluorescence intensity: 31
[9]
  mean fluorescence intensity: 97.6
[10]
  mean fluorescence intensity: 98.3
[11]
  mean fluorescence intensity: 96
[12]
  mean fluorescence intensity: 94
[13]
  mean fluorescence intensity: 53.3
[14]
  Kd: < 90 nM
[15]
  Kd: 1.02 nM
  koff: 0.000271 s⁻¹
  kon: 267000 M⁻¹ s⁻¹
[16]
  Periostin (pg/mL), MRCS cells + IL-13 5 ng/mL; antibody at 0.0002 nM: 6960 pg/mL
  Periostin (pg/mL), MRCS cells + IL-13 5 ng/mL; antibody at 0.001 nM: 6050 pg/mL
  Periostin (pg/mL), MRCS cells + IL-13 5 ng/mL; antibody at 0.004 nM: 5010 pg/mL
  Periostin (pg/mL), MRCS cells + IL-13 5 ng/mL; antibody at 0.021 nM: 4540 pg/mL
  Periostin (pg/mL), MRCS cells + IL-13 5 ng/mL; antibody at 0.11 nM: 4570 pg/mL
  Periostin (pg/mL), MRCS cells + IL-13 5 ng/mL; antibody at 0.53 nM: 3660 pg/mL
  Periostin (pg/mL), MRCS cells + IL-13 5 ng/mL; antibody at 2.67 nM: 2620 pg/mL
  Periostin (pg/mL), MRCS cells + IL-13 5 ng/mL; antibody at 13.3 nM: 1260 pg/mL
  TARC (pg/mL), A549 cells + IL-13 + TNFα; antibody at 0.001 nM: 2610 pg/mL
  TARC (pg/mL), A549 cells + IL-13 + TNFα; antibody at 0.004 nM: 3030 pg/mL
  TARC (pg/mL), A549 cells + IL-13 + TNFα; antibody at 0.021 nM: 2770 pg/mL
  TARC (pg/mL), A549 cells + IL-13 + TNFα; antibody at 0.11 nM: 2780 pg/mL
  TARC (pg/mL), A549 cells + IL-13 + TNFα; antibody at 0.53 nM: 2800 pg/mL
  TARC (pg/mL), A549 cells + IL-13 + TNFα; antibody at 2.67 nM: 2240 pg/mL
  TARC (pg/mL), A549 cells + IL-13 + TNFα; antibody at 13.3 nM: 1120 pg/mL
  TARC (pg/mL), A549 cells + IL-13 + TNFα; antibody at 66.7 nM: 348 pg/mL
  VCAM-1 fluorescence intensity, HUVEC + IL-13 0.5 ng/mL + TNFα; antibody at 0.0002 nM: 368
  VCAM-1 fluorescence intensity, HUVEC + IL-13 0.5 ng/mL + TNFα; antibody at 0.001 nM: 343
  VCAM-1 fluorescence intensity, HUVEC + IL-13 0.5 ng/mL + TNFα; antibody at 0.004 nM: 374
  VCAM-1 fluorescence intensity, HUVEC + IL-13 0.5 ng/mL + TNFα; antibody at 0.021 nM: 403
  VCAM-1 fluorescence intensity, HUVEC + IL-13 0.5 ng/mL + TNFα; antibody at 0.11 nM: 316
  VCAM-1 fluorescence intensity, HUVEC + IL-13 0.5 ng/mL + TNFα; antibody at 0.53 nM: 286
  VCAM-1 fluorescence intensity, HUVEC + IL-13 0.5 ng/mL + TNFα; antibody at 2.67 nM: 272
  VCAM-1 fluorescence intensity, HUVEC + IL-13 0.5 ng/mL + TNFα; antibody at 13.3 nM: 223
[17]
  mean fluorescence intensity: 83.7
[18]
  mean fluorescence intensity: 20.8
[19]
  mean fluorescence intensity: 78.4
[20]
  IC50 (read off the curve): 0.7 nM
[21]
  mean fluorescence intensity: 49.1

B2: c35H6E1 (mouse-human chimeric IL-13 antibody) (antibody, V domains shown)
VH: QVTLKESGPGILQSSQTLSLTCSFSGFSLSTSNMGVSWIRQPSGKGLEWLAHIYWDDDKRYNPSLESRLTISKDTSRNQVFLKITSVDTADSATYYCARRTNYFSTRDYFDYWGQGTTLTVSS
VL: DIQMTQSPASLSVSVGETVTITCRASENIYSNLVWYQQKQGKSPQLLVYAATKLADGVPSRFSGSGSGTQYSLKINSLQSEDFGSYYCQHFWGFPWTFGGGTKLEIK
[22]
  OD450 nm: 2.13
[23]
  OD450 nm: 3.23
[24]
  OD450 nm: 2.97
[25]
  OD450 nm: 0.23
[26]
  OD450 nm: 0.8
[14]
  Kd: < 90 nM
[15]
  Kd: 0.336 nM
  koff: 0.000445 s⁻¹
  kon: 1.33e+06 M⁻¹ s⁻¹
[27]
  OD450 nm: 0.11
[28]
  OD450 nm: 3.31
